Measured values from the supplement of paper PMC10724198.
± gives the standard deviation of the averaged measurements.

What follows are sequences tested on Saccharomyces cerevisiae (assay: protein stability index of tFT-peptide fusion (C-terminal peptide) (PSI (0-1 scale)); higher = more stable (slower turnover)). Settings: genetic background: wild type; temperature: 30 C.
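Note: PSI is a weighted mean of sequencing reads over stability bins, variants kept only with over 10 reads, mCherry proximal and sfGFP distal, peptide attached via GGGS linker.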

Sequence	protein stability index
VGVGGGSVASCV	0.671 ± 0.018
VGVRGGRFWAGA	0.682 ± 0.018
VHHHQTTCHRHR	0.682 ± 0.018
VHKMAARGATRL	0.647 ± 0.036
VHVSRHGSSIAF	0.74 ± 0.008
VIDLIYSMKVRR	0.688 ± 0.034
VIKRQSERRYLV	0.587 ± 0.039
VIMGLKYYRKCE	0.658 ± 0.014
VIQKHAMGDALL	0.699 ± 0.03
VISLPWRPKSWW	0.739 ± 0.07
VIWAPVLAFSVR	0.638 ± 0.051
VKEKRDLSNYNI	0.677 ± 0.037
VKGLFLHFLESS	0.695 ± 0.042
VKGVGNTAGRGV	0.659 ± 0.023
VLAFSPCPPPPP	0.657 ± 0.026
VLAGLTWQIAEL	0.668 ± 0.023
VLEAIIFRKHDN	0.74 ± 0.14
VLFCSVSFGGGQ	0.614 ± 0.091
VLGFLGWPCSSS	0.76 ± 0.0078
VLGKIIKLSTYS	0.629 ± 0.059
VLHAGACARANR	0.708 ± 0.043
VLIAIIRYGPYT	0.538 ± 0.0021
VLLATPFSAIFR	0.6907 ± 0.0057
VLLGSEGGVQSR	0.646 ± 0.011
VLLLSPPLRPCP	0.69 ± 0.024
VLNSTSFLNKNL	0.712 ± 0.059

Sequence	protein stability index
VLRPVSCTKLAA	0.656 ± 0.083
VLRRADLGYPRV	0.663 ± 0.048
VLRRALIIELLE	0.66 ± 0.025
VLRVWGCGEVGV	0.69 ± 0.019
VLSFLSSFFVRV	0.65 ± 0.079
VLSLLPFSPFSP	0.735 ± 0.096
VLSRPLSFPAGI	0.61 ± 0.047
VLTPLPWSRCSP	0.7017 ± 0.0061
VLVSSLSSSKFF	0.647 ± 0.088
VLVTWLESVGGL	0.634 ± 0.027
VLVVFVGDSSKR	0.662 ± 0.039
VLYGRFSLLGWC	0.595 ± 0.042
VMFACAGVETRR	0.745 ± 0.037
VMGAGGGSRSRV	0.677 ± 0.037
VMTRNERGQERK	0.675 ± 0.038
VMVTYCSEVQDR	0.693 ± 0.011
VNGLVLFEYLMV	0.579 ± 0.029
VNILRVYHVARA	0.564 ± 0.097
VNPWLRCSFRFW	0.6881 ± 0.0066
VNRDYLGTNKSS	0.604 ± 0.017
VNTNLRSTRSNT	0.7271 ± 0.0061
VNVCIAEYGNDR	0.768 ± 0.062
VPFPFLPPSPSL	0.87 ± 0.14
VPFVGLGLKVRV	0.6236 ± 0.0057
VPGFARLFGLLD	0.737 ± 0.047
VPGFCYKERAVV	0.673 ± 0.034

Sequence	protein stability index
VPGQRRPSQSPR	0.653 ± 0.21
VPISLSVVVLPV	0.569 ± 0.017
VPKRLLSFDQGG	0.6801 ± 0.0032
VPLSALPPPPPA	0.703 ± 0.027
VPPDTAPPPPRR	0.6994 ± 0.0055
VPPPLRPLPPPP	0.629 ± 0.14
VPPSPPRPPPPS	0.697 ± 0.053
VPRAVACDCVLL	0.6845 ± 0.0051
VPSPRHFPLPPP	0.647 ± 0.049
VPTSLGAYLRMV	0.511 ± 0.014
VPWTPPRVERVP	0.737 ± 0.036
VQCSLWYARLIL	0.513 ± 0.033
VQLGRRGQAVEP	0.7 ± 0.036
VQRFLGSCPLSI	0.611 ± 0.051
VQSLCGDCGCCL	0.735 ± 0.04
VRERWNTKKKKK	0.64 ± 0.057
VRGLGVIGVCVL	0.741 ± 0.019
VRGLHRRFEPSN	0.8 ± 0.088
VRGLYEHSLGSR	0.741 ± 0.066
VRIARSYERGGK	0.701 ± 0.059
VRLPLHHPIPNS	0.7179 ± 0.0063
VRPCLYPCSRTV	0.708 ± 0.03
VRRGGGHRWVVW	0.705 ± 0.016
VRRQADRAGRIS	0.696 ± 0.073
VRRVRGSKFFWR	0.609 ± 0.12
VRSCGTAGKGVT	0.615 ± 0.029

Sequence	protein stability index
VRTHRVRARAVE	0.685 ± 0.019
VRTLGPLRPEGL	0.74 ± 0.068
VRVEVVVFEGAG	0.598 ± 0.034
VRVGNYTRARCK	0.714 ± 0.035
VRVSPDVYGSFM	0.5897 ± 0.0057
VRWISVGNGGVR	0.725 ± 0.013
VRYRSGLVFEGV	0.747 ± 0.039
VSCGVSEGDVVC	0.675 ± 0.031
VSFCRVLQSSQS	0.692 ± 0.021
VSFLVPRYLFSG	0.654 ± 0.16
VSFNPAGYKSRN	0.671 ± 0.042
VSFRAMDRLTSR	0.6171 ± 0.0023
VSGDPWMWDVFI	0.746 ± 0.036
VSGFPHASSSPT	0.6225 ± 0.0052
VSGGGAPRSVWR	0.706 ± 0.0083
VSGGGWDSCLSV	0.724 ± 0.0082
VSGGRLVGWGGW	0.731 ± 0.12
VSHCLLRAFSDC	0.556 ± 0.011
VSHGPAIHALSI	0.669 ± 0.028
VSIPRTLFITRF	0.67018 ± 0.00016
VSIVTLSLSNFA	0.611 ± 0.0072
VSLALYSSVSIC	0.5382 ± 0.0049
VSLCGSGLGLWV	0.682 ± 0.033
